Biological target: GST-CR3 (HAdV-5 E1A residues 139–204 fused to GST) (human adenovirus type 5 (HAdV-5)) (UniProt P03255)
Assay: pull-down

Sequence of Full-length, purified FLAG-tagged CBP (CREB-binding protein), Q92793 1-2442 (natural protein) (Q92793 whole entry): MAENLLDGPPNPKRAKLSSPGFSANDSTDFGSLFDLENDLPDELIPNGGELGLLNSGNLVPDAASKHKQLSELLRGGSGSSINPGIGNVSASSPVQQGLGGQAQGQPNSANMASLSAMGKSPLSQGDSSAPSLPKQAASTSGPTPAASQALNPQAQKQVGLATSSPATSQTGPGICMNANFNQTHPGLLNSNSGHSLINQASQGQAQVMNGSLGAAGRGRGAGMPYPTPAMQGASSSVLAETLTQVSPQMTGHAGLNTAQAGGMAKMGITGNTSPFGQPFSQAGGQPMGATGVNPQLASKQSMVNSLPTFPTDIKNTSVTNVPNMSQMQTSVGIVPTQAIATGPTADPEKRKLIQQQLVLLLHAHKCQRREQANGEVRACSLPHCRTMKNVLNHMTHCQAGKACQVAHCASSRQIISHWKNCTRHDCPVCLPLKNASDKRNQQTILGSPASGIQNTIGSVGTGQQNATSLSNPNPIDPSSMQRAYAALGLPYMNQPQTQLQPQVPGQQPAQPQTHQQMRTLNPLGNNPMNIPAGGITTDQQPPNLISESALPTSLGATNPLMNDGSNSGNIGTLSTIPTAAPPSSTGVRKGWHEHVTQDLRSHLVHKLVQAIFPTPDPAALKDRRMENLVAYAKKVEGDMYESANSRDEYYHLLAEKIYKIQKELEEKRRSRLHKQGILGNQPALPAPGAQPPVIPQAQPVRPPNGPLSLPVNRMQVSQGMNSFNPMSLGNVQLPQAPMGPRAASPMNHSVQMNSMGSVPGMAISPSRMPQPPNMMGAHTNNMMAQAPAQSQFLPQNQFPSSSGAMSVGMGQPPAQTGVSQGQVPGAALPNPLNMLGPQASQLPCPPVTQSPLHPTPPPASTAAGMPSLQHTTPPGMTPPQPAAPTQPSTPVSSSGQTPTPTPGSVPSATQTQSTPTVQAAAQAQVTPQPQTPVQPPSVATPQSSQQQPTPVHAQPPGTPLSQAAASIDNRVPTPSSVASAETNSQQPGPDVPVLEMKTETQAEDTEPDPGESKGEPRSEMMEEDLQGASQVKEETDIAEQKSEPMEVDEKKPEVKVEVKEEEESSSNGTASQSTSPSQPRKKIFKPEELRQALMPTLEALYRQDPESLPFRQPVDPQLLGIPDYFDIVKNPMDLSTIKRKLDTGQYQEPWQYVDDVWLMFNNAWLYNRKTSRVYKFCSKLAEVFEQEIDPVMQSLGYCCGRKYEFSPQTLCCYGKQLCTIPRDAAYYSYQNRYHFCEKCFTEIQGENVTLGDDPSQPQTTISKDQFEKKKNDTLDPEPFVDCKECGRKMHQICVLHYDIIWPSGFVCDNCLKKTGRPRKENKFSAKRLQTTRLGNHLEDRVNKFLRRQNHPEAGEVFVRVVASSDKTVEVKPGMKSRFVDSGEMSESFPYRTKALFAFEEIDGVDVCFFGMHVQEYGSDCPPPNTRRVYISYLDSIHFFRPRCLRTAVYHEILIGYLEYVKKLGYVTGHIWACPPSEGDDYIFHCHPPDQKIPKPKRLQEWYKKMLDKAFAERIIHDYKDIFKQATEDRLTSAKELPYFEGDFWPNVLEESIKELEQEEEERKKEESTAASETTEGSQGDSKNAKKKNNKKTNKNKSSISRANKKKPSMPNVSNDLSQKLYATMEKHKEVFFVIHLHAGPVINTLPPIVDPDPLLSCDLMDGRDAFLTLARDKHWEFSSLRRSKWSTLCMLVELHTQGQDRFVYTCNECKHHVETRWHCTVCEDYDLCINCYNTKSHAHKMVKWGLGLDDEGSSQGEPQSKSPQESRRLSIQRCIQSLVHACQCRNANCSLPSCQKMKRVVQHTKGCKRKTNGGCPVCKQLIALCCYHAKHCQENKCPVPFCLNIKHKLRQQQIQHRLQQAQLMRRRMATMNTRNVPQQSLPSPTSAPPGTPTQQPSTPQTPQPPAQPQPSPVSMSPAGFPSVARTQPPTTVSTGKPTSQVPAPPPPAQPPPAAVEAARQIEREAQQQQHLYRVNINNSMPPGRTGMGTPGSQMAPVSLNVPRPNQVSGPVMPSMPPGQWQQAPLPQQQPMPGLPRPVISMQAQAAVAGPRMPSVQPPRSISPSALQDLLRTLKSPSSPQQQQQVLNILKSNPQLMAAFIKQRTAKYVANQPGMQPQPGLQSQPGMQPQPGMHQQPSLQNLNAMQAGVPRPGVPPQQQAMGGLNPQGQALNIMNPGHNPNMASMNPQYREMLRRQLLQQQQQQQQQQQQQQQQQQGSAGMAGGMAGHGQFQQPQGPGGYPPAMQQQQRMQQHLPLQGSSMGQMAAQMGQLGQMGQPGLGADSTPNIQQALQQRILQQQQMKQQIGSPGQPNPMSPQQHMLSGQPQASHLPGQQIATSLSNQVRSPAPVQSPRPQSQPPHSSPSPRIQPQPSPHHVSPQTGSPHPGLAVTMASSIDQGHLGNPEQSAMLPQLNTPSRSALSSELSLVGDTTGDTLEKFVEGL
Sequence of GST-CR3 (HAdV-5 E1A residues 139–204 fused to GST) (human adenovirus type 5 (HAdV-5)) (P03255 139-204): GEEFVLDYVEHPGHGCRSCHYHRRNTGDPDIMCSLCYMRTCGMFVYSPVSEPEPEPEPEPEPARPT

“Full-length, purified FLAG-tagged CBP (CREB-binding protein), Q92793 1-2442 (natural protein)” showed a reduction of the interaction on addition of HeLa total cellular extract of 50%.
